The record followed here is IntAct's records for PubMed 22265973.

The labels stand for the following.
B1: Synaptotagmin-2 (Rattus norvegicus (Rat)), P29101 (parent)
chain: MRNIFKRNQEPIVAPATTTATMPLAPAAPADNSTESTGTGESQEDMFAKLKDKFFNEINKIPLPPWALIAMAVVAGLLLLTCCFCICKKCCCKKKKNKKEKGKGMKNAMNMKDMKGGQDDDDAETGLTEGEGEGEEEKEPENLGKLQFSLDYDFQANQLTVGVLQAAELPALDMGGTSDPYVKVFLLPDKKKKYETKVHRKTLNPAFNETFTFKVPYQELGGKTLVMAIYDFDRFSKHDIIGEVKVPMNTVDLGQPIEEWRDLQGGEKEEPEKLGDICTSLRYVPTAGKLTVCILEAKNLKKMDVGGLSDPYVKIHLMQNGKRLKKKKTTVKKKTLNPYFNESFSFEIPFEQIQKVQVVVTVLDYDKLGKNEAIGKIFVGSNATGTELRHWSDMLANPRRPIAQWHSLKPEEEVDALLGKNK

Variants of B1 are the subject of the first assay. The note with it: with bxb_clobo botB.
Consider MRNIFKRNQEPIVAPATTTATMPLAPAAPADNSTESTGTGESQEDMFAKLKDKAFNEINKIPLPPWALIAMAVVAGLLLLTCCFCICKKCCCKKKKNKKEKGKGMKNAMNMKDMKGGQDDDDAETGLTEGEGEGEEEKEPENLGKLQFSLDYDFQANQLTVGVLQAAELPALDMGGTSDPYVKVFLLPDKKKKYETKVHRKTLNPAFNETFTFKVPYQELGGKTLVMAIYDFDRFSKHDIIGEVKVPMNTVDLGQPIEEWRDLQGGEKEEPEKLGDICTSLRYVPTAGKLTVCILEAKNLKKMDVGGLSDPYVKIHLMQNGKRLKKKKTTVKKKTLNPYFNESFSFEIPFEQIQKVQVVVTVLDYDKLGKNEAIGKIFVGSNATGTELRHWSDMLANPRRPIAQWHSLKPEEEVDALLGKNK [F54A], for which the “effect of a mutation on the interaction” value was “disrupting interaction”.

In the next assay the parent is B1. The note with it: with bxb_clobo botB. This is another data set of the same source.
Regarding MRNIFKRNQEPIVAPATTTATMPLAPAAPADNSTESTGTGESQEDMFAKLKDKLFNEINKIPLPPWALIAMAVVAGLLLLTCCFCICKKCCCKKKKNKKEKGKGMKNAMNMKDMKGGQDDDDAETGLTEGEGEGEEEKEPENLGKLQFSLDYDFQANQLTVGVLQAAELPALDMGGTSDPYVKVFLLPDKKKKYETKVHRKTLNPAFNETFTFKVPYQELGGKTLVMAIYDFDRFSKHDIIGEVKVPMNTVDLGQPIEEWRDLQGGEKEEPEKLGDICTSLRYVPTAGKLTVCILEAKNLKKMDVGGLSDPYVKIHLMQNGKRLKKKKTTVKKKTLNPYFNESFSFEIPFEQIQKVQVVVTVLDYDKLGKNEAIGKIFVGSNATGTELRHWSDMLANPRRPIAQWHSLKPEEEVDALLGKNK [F54L], the “effect of a mutation on the interaction” value is “disrupting interaction”.
